Results as given in US20210388087A1 (Chugai, published 2021).
Changes are numbered by the printed parent chain. Numbers in names are those of the source. One block for each binder: values may come before it.

Biological target: T1, Human CD3eg linker (human)
T1 construct: Single-chain construct; also called recombinant human CD3
T1 chain: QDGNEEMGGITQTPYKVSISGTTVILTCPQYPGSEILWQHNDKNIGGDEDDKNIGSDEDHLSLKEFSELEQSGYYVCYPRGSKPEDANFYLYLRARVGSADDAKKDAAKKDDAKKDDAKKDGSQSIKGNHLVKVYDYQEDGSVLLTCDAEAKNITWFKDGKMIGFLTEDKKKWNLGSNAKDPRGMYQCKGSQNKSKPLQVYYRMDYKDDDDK
Assay: SPR; fold vs parent H183/L072

B1: H183/L072 VL Q90T (antibody, name in Kabat numbering, V domains shown)
VH: QVQLVESGGGLVQPGRSLRLSCAASGFTFSNAWMHWVRQAPGKGLEWVAQIKDKGNAYAAYYAPSVKGRFTISRDDSKNSIYLQMNSLKTEDTAVYYCHYVHYASASTVLPAFGVDAWGQGTTVTVSS
VL: DIVMTQSPLSLPVTPGEPASISCQASQELVHMNRNTYLHWYQQKPGQAPRLLIYKVSNRFPGVPDRFSGSGSGTDFTLKISRVEAEDVGVYYCATGTSVPFTFGQGTKLEIK
fold change of affinity: 0 fold

B2: H183/L072 VL R29W (antibody, name in Kabat numbering, V domains shown)
VH: B1 VH
VL: B1 VL with R34W, T95Q
fold change of affinity: 0.5 fold

B3: H183/L072 VL R29M (antibody, name in Kabat numbering, V domains shown)
VH: B1 VH
VL: B1 VL with R34M, T95Q
fold change of affinity: 0.7 fold

B5: H183/L072 VL R29Y (antibody, name in Kabat numbering, V domains shown)
VH: B1 VH
VL: B1 VL with R34Y, T95Q
fold change of affinity: 0.5 fold

B6: H183/L072 VL R29K (antibody, name in Kabat numbering, V domains shown)
VH: B1 VH
VL: B1 VL with R34K, T95Q
fold change of affinity: 1.1 fold

B7: H183/L072 VL R29A (antibody, name in Kabat numbering, V domains shown)
VH: B1 VH
VL: B1 VL with R34A, T95Q
fold change of affinity: 0.6 fold

B8: H183/L072 VL R54H (antibody, name in Kabat numbering, V domains shown)
VH: B1 VH
VL: B1 VL with R59H, T95Q
fold change of affinity: 1.9 fold

B10: H183/L072 VL R29G (antibody, name in Kabat numbering, V domains shown)
VH: B1 VH
VL: B1 VL with R34G, T95Q
fold change of affinity: 1.2 fold

B12: H183/L072 VL R29F (antibody, name in Kabat numbering, V domains shown)
VH: B1 VH
VL: B1 VL with R34F, T95Q
fold change of affinity: 0.6 fold

B13: H183/L072 VL R29E (antibody, name in Kabat numbering, V domains shown)
VH: B1 VH
VL: B1 VL with R34E, T95Q
fold change of affinity: 0.3 fold

B14: H183/L072 VL R54I (antibody, name in Kabat numbering, V domains shown)
VH: B1 VH
VL: B1 VL with R59I, T95Q
fold change of affinity: 1.3 fold

B15: H183/L072 VL R29V (antibody, name in Kabat numbering, V domains shown)
VH: B1 VH
VL: B1 VL with R34V, T95Q
fold change of affinity: 0.3 fold

B18: H183/L072 VL R54A (antibody, name in Kabat numbering, V domains shown)
VH: B1 VH
VL: B1 VL with R59A, T95Q
fold change of affinity: 1 fold

B19: H183/L072 VL R29Q (antibody, name in Kabat numbering, V domains shown)
VH: B1 VH
VL: B1 VL with R34Q, T95Q
fold change of affinity: 0.7 fold

B21: H183/L072 VL R54E (antibody, name in Kabat numbering, V domains shown)
VH: B1 VH
VL: B1 VL with R59E, T95Q
fold change of affinity: 0.8 fold

B22: H183/L072 VL R29I (antibody, name in Kabat numbering, V domains shown)
VH: B1 VH
VL: B1 VL with R34I, T95Q
fold change of affinity: 0.2 fold

B23: H183/L072 VL R29N (antibody, name in Kabat numbering, V domains shown)
VH: B1 VH
VL: B1 VL with R34N, T95Q
fold change of affinity: 0.3 fold

B24: H183/L072 VL R54F (antibody, name in Kabat numbering, V domains shown)
VH: B1 VH
VL: B1 VL with R59F, T95Q
fold change of affinity: 1.5 fold

B27: H183/L072 VL R29L (antibody, name in Kabat numbering, V domains shown)
VH: B1 VH
VL: B1 VL with R34L, T95Q
fold change of affinity: 0.8 fold

B28: H183/L072 VL R29T (antibody, name in Kabat numbering, V domains shown)
VH: B1 VH
VL: B1 VL with R34T, T95Q
fold change of affinity: 0.8 fold

B30: H183/L072 VL R29D (antibody, name in Kabat numbering, V domains shown)
VH: B1 VH
VL: B1 VL with R34D, T95Q
fold change of affinity: 0.3 fold

B32: H183/L072 VL R54K (antibody, name in Kabat numbering, V domains shown)
VH: B1 VH
VL: B1 VL with R59K, T95Q
fold change of affinity: 1.7 fold

B33: H183/L072 VL R54G (antibody, name in Kabat numbering, V domains shown)
VH: B1 VH
VL: B1 VL with R59G, T95Q
fold change of affinity: 1.1 fold

B34: H183/L072 VL R54D (antibody, name in Kabat numbering, V domains shown)
VH: B1 VH
VL: B1 VL with R59D, T95Q
fold change of affinity: 0.5 fold

B35: H183/L072 VL R29S (antibody, name in Kabat numbering, V domains shown)
VH: B1 VH
VL: B1 VL with R34S, T95Q
fold change of affinity: 0.8 fold

B39: H183/L072 VL R54L (antibody, name in Kabat numbering, V domains shown)
VH: B1 VH
VL: B1 VL with R59L, T95Q
fold change of affinity: 1.3 fold

B43: H183/L072 VL R54M (antibody, name in Kabat numbering, V domains shown)
VH: B1 VH
VL: B1 VL with R59M, T95Q
fold change of affinity: 1.7 fold

B45: H183/L072 VL R29H (antibody, name in Kabat numbering, V domains shown)
VH: B1 VH
VL: B1 VL with R34H, T95Q
fold change of affinity: 0.8 fold

The remaining lines, values ahead:

fold change of affinity: 0.9 fold
B4: H183/L072 VL R54P (antibody, name in Kabat numbering, V domains shown)
VH: B1 VH
VL: B1 VL with R59P, T95Q

fold change of affinity: 0.9 fold
B9: H183/L072 VL S26G (antibody, name in Kabat numbering, V domains shown)
VH: B1 VH
VL: B1 VL with S26G, T95Q

fold change of affinity: 0.8 fold
B11: H183/L072 VL R54T (antibody, name in Kabat numbering, V domains shown)
VH: B1 VH
VL: B1 VL with R59T, T95Q

fold change of affinity: 0.6 fold
B16: H183/L072 VL S26F (antibody, name in Kabat numbering, V domains shown)
VH: B1 VH
VL: B1 VL with S26F, T95Q

fold change of affinity: 1 fold
B17: H183/L072 VL R54N (antibody, name in Kabat numbering, V domains shown)
VH: B1 VH
VL: B1 VL with R59N, T95Q

fold change of affinity: 0.8 fold
B20: H183/L072 VL S26D (antibody, name in Kabat numbering, V domains shown)
VH: B1 VH
VL: B1 VL with S26D, T95Q

fold change of affinity: 1.2 fold
B25: H183/L072 VL R54S (antibody, name in Kabat numbering, V domains shown)
VH: B1 VH
VL: B1 VL with R59S, T95Q

fold change of affinity: 1.2 fold
B26: H183/L072 VL R54Q (antibody, name in Kabat numbering, V domains shown)
VH: B1 VH
VL: B1 VL with R59Q, T95Q

fold change of affinity: 0.7 fold
B29: H183/L072 VL S26E (antibody, name in Kabat numbering, V domains shown)
VH: B1 VH
VL: B1 VL with S26E, T95Q

fold change of affinity: 0.9 fold
B31: H183/L072 VL S26N (antibody, name in Kabat numbering, V domains shown)
VH: B1 VH
VL: B1 VL with S26N, T95Q

fold change of affinity: 1.1 fold
B36: H183/L072 VL R54V (antibody, name in Kabat numbering, V domains shown)
VH: B1 VH
VL: B1 VL with R59V, T95Q

fold change of affinity: 0.4 fold
B37: H183/L072 VL S26H (antibody, name in Kabat numbering, V domains shown)
VH: B1 VH
VL: B1 VL with S26H, T95Q

fold change of affinity: 0.6 fold
B38: H183/L072 VL S26M (antibody, name in Kabat numbering, V domains shown)
VH: B1 VH
VL: B1 VL with S26M, T95Q

fold change of affinity: 0.5 fold
B40: H183/L072 VL S26I (antibody, name in Kabat numbering, V domains shown)
VH: B1 VH
VL: B1 VL with S26I, T95Q

fold change of affinity: 1.4 fold
B41: H183/L072 VL R54W (antibody, name in Kabat numbering, V domains shown)
VH: B1 VH
VL: B1 VL with R59W, T95Q

fold change of affinity: 0.5 fold
B42: H183/L072 VL S26L (antibody, name in Kabat numbering, V domains shown)
VH: B1 VH
VL: B1 VL with S26L, T95Q

fold change of affinity: 0.7 fold
B44: H183/L072 VL S26K (antibody, name in Kabat numbering, V domains shown)
VH: B1 VH
VL: B1 VL with S26K, T95Q
